Reference: patent publication US20220062405A1

Legend:
[1] = biological target: diphtheria toxin (target of Diphteria antitoxin) (UniProt P00588); experiment: specific antibody content of the polyclonal IgG preparation; assay not described
[2] = biological target: parvovirus antigen (target of Parvovirus-Ab); experiment: as above
FcγRIIa (CD32a) (human) = FcγRIIa (CD32a) (human) (UniProt P12318)
FcγRI (CD64) (human) = FcγRI (CD64) (human) (UniProt P12314)
FcγRIIIa (CD16a) (human) = FcγRIIIa (CD16a) (human) (UniProt P08637)
FcRn (human) = FcRn (human) (UniProt P55899)
[3] = biological target: FcγRIIb/c (CD32b/c) (human) (UniProt P31994)

Sequence of UniProt P00588 (P00588 33-567 limits assumed): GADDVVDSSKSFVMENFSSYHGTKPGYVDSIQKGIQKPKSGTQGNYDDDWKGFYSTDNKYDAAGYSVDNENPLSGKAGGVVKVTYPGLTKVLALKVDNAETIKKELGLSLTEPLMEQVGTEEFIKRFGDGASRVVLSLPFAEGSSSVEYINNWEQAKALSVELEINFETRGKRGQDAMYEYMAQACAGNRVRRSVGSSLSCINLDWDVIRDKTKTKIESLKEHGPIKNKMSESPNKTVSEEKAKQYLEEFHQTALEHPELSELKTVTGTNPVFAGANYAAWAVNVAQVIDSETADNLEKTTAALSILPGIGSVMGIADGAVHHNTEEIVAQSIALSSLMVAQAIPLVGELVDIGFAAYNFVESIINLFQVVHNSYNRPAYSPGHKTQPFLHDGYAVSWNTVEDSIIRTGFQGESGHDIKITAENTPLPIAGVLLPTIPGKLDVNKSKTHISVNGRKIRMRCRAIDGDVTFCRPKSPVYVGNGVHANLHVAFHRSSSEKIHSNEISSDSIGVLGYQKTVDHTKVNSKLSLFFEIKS

Work on IgG (Hizentra) (antibody) yielded a Diphteria antitoxin (IU/mL) [1] of 18.1 IU/mL, a Parvovirus-Ab (IU/mL) ([2]; original Hizentra formulation) of 595 IU/mL and a Parvovirus-Ab (IU/mL) ([2]; re-formulated Hizentra) of 509 IU/mL. For the same substance, the Kd (FcγRIIa (CD32a) (human)) was 0.213 µM, the koff (FcγRIIa (CD32a) (human)) was 0.055 s⁻¹ and the kon (FcγRIIa (CD32a) (human)) was 260000 M⁻¹ s⁻¹. The Kd (FcγRI (CD64) (human)) was 0.0197 µM, the koff (FcγRI (CD64) (human)) was 0.0017 s⁻¹ and the kon (FcγRI (CD64) (human)) was 87000 M⁻¹ s⁻¹. For the same substance, the Kd (FcγRIIIa (CD16a) (human)) was 0.496 µM, the koff (FcγRIIIa (CD16a) (human)) was 0.036 s⁻¹ and the kon (FcγRIIIa (CD16a) (human)) was 73000 M⁻¹ s⁻¹. The Kd (FcRn (human)) was 0.001 µM, the koff (FcRn (human)) was 0.0025 s⁻¹ and the kon (FcRn (human)) was 2.5e+06 M⁻¹ s⁻¹. The Kd [3] was 2.7 µM.
